Measured values from patent US9255257B2, “PmST1 mutants for chemoenzymatic synthesis of sialyl lewis X compounds” (THE REGENTS OF THE UNIVERSITY OF CALIFORNIA, priority 2011, dated 2016).

How the values were obtained:
[1] = system: CC(=O)N[C@H]1[C@H]([C@H](O)[C@H](O)CO)O[C@](OP(=O)(O)OC[C@H]2O[C@@H](n3ccc(N)nc3=O)[C@H](O)[C@@H]2O)(C(=O)O)C[C@@H]1O; test: CMP-Neu5Ac (donor) hydrolysis activity, capillary electrophoresis; format: biochemical, Pasteurella multocida; conditions: other: apparent, Tris-HCl pH 8.5, 37° C., 15 min
Experimental: (§1) Site-directed mutagenesis, expression and purification of PmST1 mutants. Site-directed mutagenesis was performed using the QuikChange multi-site-directed mutagenesis kit from Stratagene according to the manufacturer's protocol. The primers used were 5′-[…]-3′ (SEQ ID NO:35) for M144D; 5′-[…]a[…] -3′ (SEQ ID NO:36) for M144H; 5′-[…]-3′ (SEQ ID NO:37) for A35D; and 5′-[…]-3′ (SEQ ID NO:38) for A35H. The expression and purification of the mutants were performed as previously described for the WT PmST1 .
Kinetics of the donor hydrolysis activity of PmST1 and mutants by capillary electrophoresis analysis. […] The reactions were stopped by adding 10 μL of pre-chilled ethanol. The mixtures were incubated on ice for 30 min and centrifuged at 13,000 rpm for 5 min. The supernatants were diluted with borate buffer (25 mM, pH 9.5) and aliquotes of 5 μL each were injected to a Beckman Coulter P/ACE™ MDQ Capillary Electrophoresis system equipped with a capillary (60 cm×75 μm i.d.) and monitored at 254 nm. The apparent kinetic parameters were obtained by fitting the experimental data (the average values of duplicate assay results) into the Michaelis-Menten equation using Grafit 5.0.

[2] = system: CC(=O)N[C@H]1[C@H]([C@H](O)[C@H](O)CO)O[C@@](O[C@H]2[C@@H](O)[C@@H](CO)O[C@@H](O[C@H]3[C@H](O)[C@@H](O)[C@H](Oc4ccc5c(C)cc(=O)oc5c4)O[C@@H]3CO)[C@@H]2O)(C(=O)O)C[C@@H]1O; test: α2-3-sialidase activity, Neu5Acα2-3LacβMU as substrate; format: biochemical, Pasteurella multocida; conditions: other: apparent, MES pH 5.5, 37° C.
Experimental: as §1
Kinetics of the α2-3-sialidase activity of PmST1 mutants. The reactions were performed in duplicate in a total volume of 10 μL at 37° C. for 60 min (M144D) or 15 min (M144H) in MES buffer (100 mM, pH 5.5) containing Neu5Acα2-3LacβMU (0.4, 1, 2, 4, 10, 20, 40 and 60 mM) and an enzyme (M144H, 1.36 mg mL^−1 or M144D, 1.05 mg mL^−1). Sample treatment after the reaction and analysis were carried out by HPLC similar to that described above for the α2-3-sialyltransferase assays.

[3] = system: CC(=O)N[C@H]1[C@H](Oc2ccc3c(C)cc(=O)oc3c2)O[C@H](CO)[C@@H](O[C@@H]2O[C@H](CO)[C@H](O)[C@H](O)[C@H]2O)[C@@H]1O[C@@H]1O[C@@H](C)[C@@H](O)[C@@H](O)[C@@H]1O; test: α2-3-sialyltransferase activity, Le^xβMU as acceptor; format: biochemical, Pasteurella multocida; conditions: other: apparent, acceptor, CMP-Neu5Ac 1 mM, CAPSO pH 9.5, 37° C.
Experimental: as §1
(§2) Kinetics of the α2-3-sialyltransferase activity of PmST1 mutants by HPLC analysis. With LacβMU as the acceptor substrate, the reactions were performed in duplicate at 37° C. for 10 min (M144D) or 4 min (M144H) in a reaction mixture (10 μL) containing Tris-HCl (100 mM, pH 8.5), an enzyme (5 μg mL^−1), and different concentrations (0.2, 0.5, 1.0, 2.0, and 5.0 mM) of LacβMU with a fixed concentration (1 mM) of CMP-Neu5Ac or different concentrations (0.2, 0.5, 1.0, 2.0, 5.0, and 10.0 mM) of CMP-Neu5Ac with a fixed concentration (1 mM) of LacβMU. With Le^xβMU as the acceptor substrate, the reactions were carried out in duplicate at 37° C. for 9 min (M144D) or 10 min (M144H) in a reaction mixture (10 μL) containing CAPSO (100 mM, pH 9.5), an enzyme (M144D, 39 μg mL^−1 or M144H, 5 μg mL^−), and various concentrations of Le^xβMU (1.0, 5.0, 10.0, 15.0, 25.0, and 35.0 mM) with a fixed concentration (1 mM) of CMP-Neu5Ac or various concentrations (0.2, 0.5, 1.0, 2.0, 5.0, 10.0, 20.0, and 40.0 mM) of CMP-Neu5Ac with a fixed concentration (1 mM) of Le^xβMU. Reactions were stopped by adding 10 μL of pre-chilled ethanol. The mixtures were incubated on ice for 30 min and centrifuged at 13,000 rpm for 5 min. The supernatants were diluted with 25% acetonitrile and kept on ice until aliquots of 8 μL were injected and analyzed by the Shimadzu LC-6AD system equipped with a membrane on-line degasser, a temperature control unit, and a fluorescence detector (Shimadzu RF-10AXL). A reverse-phase Premier C18 column (250×4.6 mm i.d., 5 μm particle size, Shimadzu) protected with a C18 guard column cartridge was used. The mobile phase was 25% acetonitrile. The fluorophore (MU)-labeled compounds were detected by excitation at 325 nm and emission at 372 nm. The apparent kinetic parameters were obtained by fitting the experimental data (the average values of duplicate assay results) into the Michaelis-Menten equation using Grafit 5.0.

[4] = system: CC(=O)N[C@H]1[C@H]([C@H](O)[C@H](O)CO)O[C@](OP(=O)(O)OC[C@H]2O[C@@H](n3ccc(N)nc3=O)[C@H](O)[C@@H]2O)(C(=O)O)C[C@@H]1O; test: as above; format: biochemical, Pasteurella multocida; conditions: other: apparent, donor, Le^xβMU 1 mM, CAPSO pH 9.5, 37° C.
Experimental: as §1, §2

[5] = system: Cc1cc(=O)oc2cc(O[C@@H]3O[C@H](CO)[C@@H](O[C@@H]4O[C@H](CO)[C@H](O)[C@H](O)[C@H]4O)[C@H](O)[C@H]3O)ccc12; test: α2-3-sialyltransferase activity, LacβMU as acceptor; format: biochemical, Pasteurella multocida; conditions: other: apparent, acceptor, CMP-Neu5Ac 1 mM, Tris-HCl pH 8.5, 37° C.
Experimental: as §1, §2

[6] = system: CC(=O)N[C@H]1[C@H]([C@H](O)[C@H](O)CO)O[C@](OP(=O)(O)OC[C@H]2O[C@@H](n3ccc(N)nc3=O)[C@H](O)[C@@H]2O)(C(=O)O)C[C@@H]1O; test: as above; format: biochemical, Pasteurella multocida; conditions: other: apparent, donor, LacβMU 1 mM, Tris-HCl pH 8.5, 37° C.
Experimental: as §1, §2

[7] = Apparent kinetics of the α2-3-sialidase activity (HPLC, fluorescent sialoside substrate); format: biochemical; conditions: substrate Neu5Acα2-3LacβMU
Experimental: All the sialidase and α2-3-sialyltransferase assays were performed in an HPLC system. Reactions were stopped by adding 10 μL of ethanol. […] The mobile phase was 25% acetonitrile.
Kinetics of the α2-3-sialidase activity of PmST1 mutants.

[8] = Thermal stability studies by HPLC; format: physicochemical; conditions: incubating at 37° C. for up to 2 hours
Experimental: Stability studies by HPLC. Thermal stability studies were carried out by incubating wild-type PmST1 or E271F/R313Y mutant solution (20 μg mL^−1) at 37° C. Samples were withdrawn at various time intervals for enzyme activity assays.

[9] = α2-3-sialidase activity assay with sialyl Le^x substrate (HPLC); format: biochemical; conditions: substrate 1 mM, enzyme 4 mg mL^−1, MES pH 5.5, 37° C.
Experimental: The α2-3-sialidase activity assays of PmST1 and mutants. The reactions were carried out in duplicate in a total volume of 10 μL at 37° C. for 20 hr in MES buffer (100 mM, pH 5.5) containing Neu5Acα2-3Le^xβMU (1 mM) and an enzyme (4 mg mL^−1). Aliquots of 1 μL were withdrawn at 1 hr, 6 hr and 20 hr, and analyzed by HPLC as described above for the α2-3-sialyltransferase assays.

[10] = HPLC time course of PmST1-catalyzed α2-3-sialylation of Le^xβMU; format: biochemical; conditions: Le^xβMU 1 mM, one equivalent of CMP-Neu5Ac
From the text: Numbers in parentheses represent the % consumption of CMP-Neu5Ac by capillary electrophoresis (CE) assays.
In fact, donor hydrolysis has been observed in other glycosyltransferase-catalyzed reactions that lead to lower synthetic yields. […] Two recent papers discussed the donor hydrolysis activities of human blood group A and B glycosyltransferases (GTA and GTB) which are Mn^2+-dependent and the UDP-Gal hydrolysis activity of GTB is increased in the presence of an acceptor substrate analog. Nevertheless, the effect of donor hydrolysis of glycosyltransferases on glycosylation processes has not been investigated in detail. In addition, no strategy has been reported for improving the yields of glycosyltransferase-catalyzed reactions by decreasing donor hydrolysis activity.

## Pasteurella multocida PmST1 mutant M144H of SEQ ID NO: 13 (M120H of Δ24PmST1, SEQ ID NO: 5) (Pasteurella multocida; M144H)
[1]; M144H
  Km: 13 ± 3 mM
[2]; M144H, 15 min
  Km: 1.7 ± 0.3 mM
[3]; M144H
  Km: 8.1 ± 0.9 mM
[4]; M144H
  Km: 0.4 ± 0.05 mM
[5]; M144H
  Km: 0.79 ± 0.04 mM
[6]; M144H
  Km: 0.81 ± 0.06 mM

## Pasteurella multocida PmST1 mutant M144D of SEQ ID NO: 13 (M120D of Δ24PmST1, SEQ ID NO: 3) (Pasteurella multocida; M144D)
[1]; M144D
  Km: 7.3 ± 0.5 mM
[2]; M144D, 60 min
  Km: 20 ± 2 mM
[3]; M144D
  Km: 13 ± 2 mM
[4]; M144D
  Km: 2.1 ± 0.1 mM
[5]; M144D
  Km: 12 ± 1 mM
[6]; M144D
  Km: 0.30 ± 0.05 mM

B1: E271F/R313Y (protein, listed as Pasteurella multocida)
chain: MKNRRLNFKLFFLIIFSLFSTLSWSKTITLYLDPASLPALNQLMDFTQNNEDKTHPRIFGLSRFKIPDNIITQYQNIHFVELKDNRPTEALFTILDQYPGNIELNIHLNIAHSVQLIRPILAYRFKHLDRVSIQQLNLYDDGSMEYVDLEKEENKDISAEIKQAEKQLSHYLLTGKIKFDNPTIARYVWQSAFPVKYHFLSTDYFEKAEFLQPLKEYLAENYQKMDWTAYQQLTPEQQAFYLTLVGFNDEVKQSLEVQQAKFIFTGTTTWFGNTDVREYYAQQQLNLLNHFTQAEGDLFIGDHYKIYFKGHPYGGEINDYILNNAKNITNIPANISFEVLMMTGLLPDKVGGVASSLYFSLPKEKISHIIFTSNKQVKSKEDALNNPYVKVMRRLGIIDESQVIFWDSLKQL
modifications: PmST1 wild-type glycosyltransferase family 80 (GT80), GT80 sialyltransferase, Pm0188Ph
[7]
  decrease in sialidase kcat (turnover number) compared to wild-type PmST1: 277 fold
  decrease of α2-3-sialidase activity (catalytic efficiency kcat/Km) compared to wild-type PmST1: 6,333 fold
  increase in sialidase Km value compared to wild-type PmST1: 22.5 fold
[8]
  thermal stability of α2-3-sialyltransferase activity (FIG. 3, in words): did not decrease their activities significantly

B2: WT: multifunctional α2-3-sialyltransferase from Pasteurella multocida (PmST1), wild type sequence SEQ ID NO: 13; control enzyme (protein, listed as Pasteurella multocida)
chain: MKNRRLNFKLFFLIIFSLFSTLSWSKTITLYLDPASLPALNQLMDFTQNNEDKTHPRIFGLSRFKIPDNIITQYQNIHFVELKDNRPTEALFTILDQYPGNIELNIHLNIAHSVQLIRPILAYRFKHLDRVSIQQLNLYDDGSMEYVDLEKEENKDISAEIKQAEKQLSHYLLTGKIKFDNPTIARYVWQSAFPVKYHFLSTDYFEKAEFLQPLKEYLAENYQKMDWTAYQQLTPEQQAFYLTLVGFNDEVKQSLEVQQAKFIFTGTTTWEGNTDVREYYAQQQLNLLNHFTQAEGDLFIGDHYKIYFKGHPRGGEINDYILNNAKNITNIPANISFEVLMMTGLLPDKVGGVASSLYFSLPKEKISHIIFTSNKQVKSKEDALNNPYVKVMRRLGIIDESQVIFWDSLKQL
modifications: PmST1 wild-type glycosyltransferase family 80 (GT80), GT80 sialyltransferase, Pm0188Ph
notes: control enzyme
[9]; 1 h
  Neu5Ac cleaved from Neu5Acα2-3Le^xβMU: 2.0%
[9]; 6 h
  Neu5Ac cleaved from Neu5Acα2-3Le^xβMU: 7.0%
[9]; 20 h
  Neu5Ac cleaved from Neu5Acα2-3Le^xβMU: 7.5%
[8]
  thermal stability of α2-3-sialyltransferase activity (FIG. 3, in words): did not decrease their activities significantly
[10]
  time to reach yield plateau: ≤ 2 min
  yield plateau of sialylation of Le^xβMU: 1.1-1.3%
